Article PMC8532503 (Science (New York, N.Y.), 2021)

Biological target: Full-length ectodomain of human LRP1 (LRP1-ECD) (human, UniProt Q07954-1 20-4414)
Experiment: SEC

Chain of Full-length ectodomain of human LRP1 (LRP1-ECD) (Q07954 20-4414): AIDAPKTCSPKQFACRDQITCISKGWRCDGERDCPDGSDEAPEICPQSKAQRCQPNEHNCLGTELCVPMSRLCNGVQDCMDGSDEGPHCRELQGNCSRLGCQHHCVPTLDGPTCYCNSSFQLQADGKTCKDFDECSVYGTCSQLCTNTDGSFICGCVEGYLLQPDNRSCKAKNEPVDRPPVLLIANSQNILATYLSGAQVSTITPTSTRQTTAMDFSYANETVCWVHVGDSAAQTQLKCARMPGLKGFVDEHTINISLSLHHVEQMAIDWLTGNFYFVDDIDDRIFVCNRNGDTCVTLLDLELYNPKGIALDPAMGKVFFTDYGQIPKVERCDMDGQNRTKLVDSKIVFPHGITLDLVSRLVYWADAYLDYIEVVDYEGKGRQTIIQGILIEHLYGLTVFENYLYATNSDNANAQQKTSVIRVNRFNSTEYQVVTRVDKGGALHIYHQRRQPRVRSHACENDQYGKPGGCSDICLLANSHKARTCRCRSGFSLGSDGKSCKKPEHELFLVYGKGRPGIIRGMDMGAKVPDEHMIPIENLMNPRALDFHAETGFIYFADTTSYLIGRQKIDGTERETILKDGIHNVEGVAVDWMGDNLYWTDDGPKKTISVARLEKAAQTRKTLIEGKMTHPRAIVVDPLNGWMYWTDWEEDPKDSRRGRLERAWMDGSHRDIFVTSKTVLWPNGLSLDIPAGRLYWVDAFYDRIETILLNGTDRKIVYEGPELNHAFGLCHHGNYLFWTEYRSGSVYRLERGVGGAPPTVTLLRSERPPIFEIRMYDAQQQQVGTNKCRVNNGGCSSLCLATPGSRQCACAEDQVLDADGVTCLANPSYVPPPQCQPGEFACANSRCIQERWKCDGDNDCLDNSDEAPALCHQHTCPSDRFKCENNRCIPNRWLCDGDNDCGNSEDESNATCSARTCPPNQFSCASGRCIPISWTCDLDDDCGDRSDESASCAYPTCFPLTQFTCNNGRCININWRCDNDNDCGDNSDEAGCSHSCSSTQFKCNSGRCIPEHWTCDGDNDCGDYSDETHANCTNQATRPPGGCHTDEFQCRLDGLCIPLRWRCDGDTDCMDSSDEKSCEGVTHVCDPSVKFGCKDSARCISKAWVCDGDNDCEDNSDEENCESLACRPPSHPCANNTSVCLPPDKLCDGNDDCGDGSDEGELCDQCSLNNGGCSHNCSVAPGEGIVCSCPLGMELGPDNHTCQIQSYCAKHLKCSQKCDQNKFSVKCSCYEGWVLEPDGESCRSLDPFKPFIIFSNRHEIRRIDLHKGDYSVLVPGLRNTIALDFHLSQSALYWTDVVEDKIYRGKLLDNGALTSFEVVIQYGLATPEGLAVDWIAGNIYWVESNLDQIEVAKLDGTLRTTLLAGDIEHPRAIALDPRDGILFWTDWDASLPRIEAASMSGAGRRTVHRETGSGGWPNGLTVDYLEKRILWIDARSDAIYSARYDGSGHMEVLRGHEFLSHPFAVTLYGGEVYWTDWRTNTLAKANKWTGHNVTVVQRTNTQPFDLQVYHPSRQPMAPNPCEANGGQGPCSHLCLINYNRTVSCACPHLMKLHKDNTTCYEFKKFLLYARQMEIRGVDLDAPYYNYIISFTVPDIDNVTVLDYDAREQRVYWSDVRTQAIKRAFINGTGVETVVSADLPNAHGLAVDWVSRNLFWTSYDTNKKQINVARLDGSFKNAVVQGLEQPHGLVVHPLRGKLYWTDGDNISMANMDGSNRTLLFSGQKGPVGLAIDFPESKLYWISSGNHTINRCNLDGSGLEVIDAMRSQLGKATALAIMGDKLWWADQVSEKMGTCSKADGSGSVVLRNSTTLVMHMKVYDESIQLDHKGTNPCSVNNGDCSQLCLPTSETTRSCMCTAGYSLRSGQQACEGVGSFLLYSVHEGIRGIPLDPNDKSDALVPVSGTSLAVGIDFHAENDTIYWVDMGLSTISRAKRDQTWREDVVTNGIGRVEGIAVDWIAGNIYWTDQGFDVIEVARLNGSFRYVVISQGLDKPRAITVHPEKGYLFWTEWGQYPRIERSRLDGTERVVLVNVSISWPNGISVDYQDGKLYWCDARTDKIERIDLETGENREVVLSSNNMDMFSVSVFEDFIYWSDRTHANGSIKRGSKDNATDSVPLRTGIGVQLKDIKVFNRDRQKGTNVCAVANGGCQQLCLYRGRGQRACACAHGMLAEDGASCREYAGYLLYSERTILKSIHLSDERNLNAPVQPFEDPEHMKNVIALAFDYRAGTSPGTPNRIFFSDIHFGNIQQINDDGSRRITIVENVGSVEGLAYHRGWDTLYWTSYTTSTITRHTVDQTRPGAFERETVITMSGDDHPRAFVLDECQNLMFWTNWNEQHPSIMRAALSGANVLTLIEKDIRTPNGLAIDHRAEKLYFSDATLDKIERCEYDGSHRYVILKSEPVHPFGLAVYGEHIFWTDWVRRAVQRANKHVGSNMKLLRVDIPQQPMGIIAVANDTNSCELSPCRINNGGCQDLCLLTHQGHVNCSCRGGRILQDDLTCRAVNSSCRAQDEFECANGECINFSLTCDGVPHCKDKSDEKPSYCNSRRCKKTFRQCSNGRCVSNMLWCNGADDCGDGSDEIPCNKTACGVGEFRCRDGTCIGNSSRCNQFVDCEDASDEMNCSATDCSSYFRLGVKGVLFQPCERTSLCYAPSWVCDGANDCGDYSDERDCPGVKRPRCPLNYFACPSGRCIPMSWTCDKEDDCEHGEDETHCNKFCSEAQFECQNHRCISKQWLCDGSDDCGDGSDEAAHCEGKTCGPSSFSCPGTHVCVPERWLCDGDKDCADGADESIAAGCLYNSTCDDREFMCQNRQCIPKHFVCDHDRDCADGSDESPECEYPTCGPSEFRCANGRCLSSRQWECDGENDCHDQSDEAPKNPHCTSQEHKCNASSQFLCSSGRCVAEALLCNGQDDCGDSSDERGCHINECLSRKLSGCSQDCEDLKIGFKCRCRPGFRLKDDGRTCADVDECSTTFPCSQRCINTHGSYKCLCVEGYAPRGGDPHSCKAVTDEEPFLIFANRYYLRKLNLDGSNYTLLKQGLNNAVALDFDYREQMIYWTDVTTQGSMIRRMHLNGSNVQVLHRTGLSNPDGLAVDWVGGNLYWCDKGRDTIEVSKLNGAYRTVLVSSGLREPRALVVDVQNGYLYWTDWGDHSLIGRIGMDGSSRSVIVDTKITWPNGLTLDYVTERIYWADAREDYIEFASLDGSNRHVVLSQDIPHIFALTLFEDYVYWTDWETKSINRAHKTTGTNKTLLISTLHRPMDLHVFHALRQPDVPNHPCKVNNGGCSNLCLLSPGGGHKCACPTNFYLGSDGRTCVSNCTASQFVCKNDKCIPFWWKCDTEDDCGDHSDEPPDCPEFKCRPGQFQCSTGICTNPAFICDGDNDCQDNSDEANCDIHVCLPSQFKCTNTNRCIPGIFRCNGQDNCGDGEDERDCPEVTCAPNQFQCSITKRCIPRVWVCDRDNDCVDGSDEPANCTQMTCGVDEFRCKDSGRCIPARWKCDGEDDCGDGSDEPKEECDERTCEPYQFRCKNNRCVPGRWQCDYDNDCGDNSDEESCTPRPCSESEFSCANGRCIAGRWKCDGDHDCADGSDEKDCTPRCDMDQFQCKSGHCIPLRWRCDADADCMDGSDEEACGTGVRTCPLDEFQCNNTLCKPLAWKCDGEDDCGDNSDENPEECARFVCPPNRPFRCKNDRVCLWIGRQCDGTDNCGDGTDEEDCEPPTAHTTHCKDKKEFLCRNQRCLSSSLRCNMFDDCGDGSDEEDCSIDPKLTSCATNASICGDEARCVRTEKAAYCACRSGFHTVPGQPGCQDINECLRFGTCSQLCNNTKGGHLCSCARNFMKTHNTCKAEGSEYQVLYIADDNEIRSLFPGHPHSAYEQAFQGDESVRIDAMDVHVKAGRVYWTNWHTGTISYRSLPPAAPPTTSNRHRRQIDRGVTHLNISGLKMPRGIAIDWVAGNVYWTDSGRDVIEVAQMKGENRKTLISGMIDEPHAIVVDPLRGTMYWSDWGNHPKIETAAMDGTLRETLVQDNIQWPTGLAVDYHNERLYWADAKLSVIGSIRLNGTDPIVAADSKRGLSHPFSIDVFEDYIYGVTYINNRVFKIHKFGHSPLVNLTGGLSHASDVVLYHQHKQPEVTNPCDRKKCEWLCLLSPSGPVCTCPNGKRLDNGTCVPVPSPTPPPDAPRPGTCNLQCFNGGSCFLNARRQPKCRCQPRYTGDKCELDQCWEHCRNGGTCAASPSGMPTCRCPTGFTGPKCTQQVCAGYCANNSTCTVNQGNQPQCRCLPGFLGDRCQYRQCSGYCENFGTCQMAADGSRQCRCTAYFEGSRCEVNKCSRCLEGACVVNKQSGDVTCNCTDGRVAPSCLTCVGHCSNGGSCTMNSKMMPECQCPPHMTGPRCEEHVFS

binding result: binds
B1: Recombinant mouse SAA1 (purified SAA1, tag state not stated) (natural protein, UniProt P05366 20-122, looked up)
chain: GFFSFVHEAFQGAGDMWRAYTDMKEANWKNSDKYFHARGNYDAAQRGPGGVWAAEKISDGREAFQEFFGRGHEDTIADQEANRHGRSGKDPNYYRPPGLPDKY
